# Results reported in article PMC4908412, “β-arrestin-1 contributes to brown fat function and directly interacts with PPARα and PPARγ” (Scientific Reports, 2016).
# Positions count from the first letter of the chain named. Numbers in names are those of the source.
# B1: 9-cis-retinoic acid receptor α-ligand binding domain (amino acids 196–435) (domain or fragment, human, UniProt P19793 223-462, looked up)
# chain: TSSANEDMPVERILEAELAVEPKTETYVEANMGLNPSSPNDPVTNICQAADKQLFTLVEWAKRIPHFSELPLDDQVILLRAGWNELLIASFSHRSIAVKDGILLATGLHVHRNSAHSAGVGAIFDRVLTELVSKMRDMQMDKTELGCLRAIVLFNPDSKGLSNPAEVEALREKVYASLEAYCKHKYPEQPGRFAKLLLRLPALRSIGLKCLEHLFFFKLIGDTPIDTFLMEMLEAPHQMT
# notes: also called RXRα-LBD; source: E. coli BL21 (DE3)-CodonPlus, purified
# B2: PPARα-LBD D371A (domain or fragment, human, UniProt Q07869 196-468, looked up)
# chain: EDSETADLKSLAKRIYEAYLKNFNMNKVKARVILSGKASNNPPFVIHDMETLCMAEKTLVAKLVANGIQNKEAEVRIFHCCQCTSVETVTELTEFAKAIPGFANLDLNDQVTLLKYGVYEAIFAMLSSVMNKDGMLVAYGNGFITREFLKSLRKPFCDIMEPKFDFAMKFNALELADSDISLFVAAIICCGDRPGLLNVGHIEKMQEGIVHVLRLHLQSNHPDDIFLFPKLLQKMADLRQLVTEHAQLVQIIKKTESDAALHPLLQEIYRDMY
# notes: also called PPARα M2; source: E. coli BL21 (DE3)-CodonPlus, purified
# B3: PPARα-ligand binding domain (amino acids 196–468) (domain or fragment, human, UniProt Q07869 196-468, looked up)
# chain: B2 chain with A176D
# modifications: biotinylated for biolayer interferometry; 15N-labeled for NMR
# notes: The His tag is used for capture in the pulldown; also called PPARα-LBD; wild-type PPARα; source: E. coli BL21 (DE3)-CodonPlus, purified; not shown: His6, N-terminal, kept
# B4: PPARγ-LBD D380A (domain or fragment, human, UniProt P37231-2 204-477, looked up)
# chain: LNPESADLRALAKHLYDSYIKSFPLTKAKARAILTGKTTDKSPFVIYDMNSLMMGEDKIKFKHITPLQEQSKEVAIRIFQGCQFRSVEAVQEITEYAKSIPGFVNLDLNDQVTLLKYGVHEIIYTMLASLMNKDGVLISEGQGFMTREFLKSLRKPFGDFMEPKFEFAVKFNALELADSDLAIFIAVIILSGDRPGLLNVKPIEDIQDNLLQALELQLKLNHPESSQLFAKLLQKMTDLRQIVTEHVQLLQVIKKTETDMSLHPLLQEIYKDLY
# notes: also called PPARγ M2; source: E. coli BL21 (DE3)-CodonPlus, purified
# B5: PPARγ-LBD L311G/N312G (domain or fragment, human, UniProt P37231-2 204-477, looked up)
# chain: B4 chain with L108G, N109G, A177D
# notes: also called PPARγ M1; source: E. coli BL21 (DE3)-CodonPlus, purified
# B6: PPARγ-ligand binding domain (amino acids 204–477) (domain or fragment, human, UniProt P37231-2 204-477, looked up)
# chain: B4 chain with A177D
# modifications: biotinylated for biolayer interferometry; 15N-labeled for NMR
# notes: The His tag is used for capture in the pulldown; also called PPARγ-LBD; wild-type PPARγ; source: E. coli BL21 (DE3)-CodonPlus, purified; not shown: His6, N-terminal, kept
# Key:
# Settings in all cases: both partners purified
# [1] = molecular target: B6; assay: BLI; RXRα-LBD with PPARα/γ-LBD; the tables and the methods name PPAR-LBD as ligand and RXRα-LBD as analyte, the legend of Fig. 2e,f says 50 μg/ml RXRα-LBD loaded on SAs with serial dilutions of PPARα/γ-LBD; 25 °C; 2:1 heterogeneous ligand model and steady-state analysis
# [2] = molecular target: B3; assay: BLI; competition: PPARα/γ-LBD and β-arrestin-1 with or without increasing amounts of RXRα-LBD (Supplementary Fig. 5b,c)
# [3] = molecular target: B6; assay: as above
# [4] = molecular target: B3; assay: BLI; RXRα-LBD with PPARα/γ-LBD; the tables and the methods name PPAR-LBD as ligand and RXRα-LBD as analyte, the legend of Fig. 2e,f says 50 μg/ml RXRα-LBD loaded on SAs with serial dilutions of PPARα/γ-LBD; 25 °C; 2:1 heterogeneous ligand model and steady-state analysis
# [5] = molecular target: T1, β-arrestin-1 (recombinant rattus β-arrestin-1) (rat, UniProt P29066 1-418); assay: BLI; Octet Red 96; 50 μg/ml biotinylated PPARα-LBD or PPARγ-LBD (or their mutants) immobilised on streptavidin biosensors; analyte β-arrestin-1, βarr1M or peptides in solution (single 2 μM or serial dilutions, β-arrestin-1 0.5–32 μM); 25 °C; 2:1 heterogeneous ligand model and steady-state analysis
# T1 construct: β-arrestin-1, rat (rattus), recombinant; also called βarr1; wild-type β-arrestin-1
# [6] = molecular target: T2, β-arrestin-1 double mutant with L100A and L104A (rat, UniProt P29066 1-418, L100A | L104A); assay: as above
# T2 construct: β-arrestin-1 with L100A and L104A; also called βarr1M; source: purified
# [7] = molecular target: T1, β-arrestin-1 (recombinant rattus …); assay: as above; remark: listed apart in the source
# [8] = molecular target: B3; assay: as above
# [9] = molecular target: B6; assay: as above
# [10] = molecular target: B3; assay: as above; remark: listed apart in the source
# [11] = molecular target: B6; assay: as above; remark: listed apart in the source
# T1 sequence (P29066 whole entry, the tested form may be a part): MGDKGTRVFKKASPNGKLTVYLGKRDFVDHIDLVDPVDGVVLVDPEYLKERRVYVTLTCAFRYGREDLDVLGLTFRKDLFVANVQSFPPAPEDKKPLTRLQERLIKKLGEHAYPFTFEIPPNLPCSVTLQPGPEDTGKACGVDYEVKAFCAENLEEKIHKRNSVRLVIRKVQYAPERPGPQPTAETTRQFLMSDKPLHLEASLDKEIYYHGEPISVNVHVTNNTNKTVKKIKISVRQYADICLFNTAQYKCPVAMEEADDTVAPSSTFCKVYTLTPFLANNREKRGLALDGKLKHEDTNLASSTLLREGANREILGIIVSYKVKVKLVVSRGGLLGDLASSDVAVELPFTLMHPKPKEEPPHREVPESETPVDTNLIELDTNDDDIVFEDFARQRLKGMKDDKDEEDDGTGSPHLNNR
# T2 sequence (P29066 whole entry L100A/L104A): as the sequence (P29066 whole entry, the tested form may be a part) above, with L100A, L104A counted along it
binder,measurement,setting,value
B1,Kd,[1],71 nM
same,IC50,[2],880 nM
same,IC50,[3],850 nM
same,Kd,[4],29 nM
B2,Kd,[5],4100 nM
B3,Kd,[6],3900 nM
same,Kd,[5],3600 nM
B4,Kd,[7],1500 nM
B5,Kd,[7],1900 nM
B6,Kd,[7],1400 nM
PAPEDKKPLTRLQERLIKKLG [synthetic β-arrestin-1 peptide harboring the LQERLIKKL sequence],KD1 (2:1 HL model),[8],42 µM
same,KD2 (2:1 HL model),[8],60.3 µM
same,Kd,[8],56000 nM
same,koff1 (2:1 HL model),[8],0.000907 S^−1
same,koff2 (2:1 HL model),[8],0.161 S^−1
same,kon1 (2:1 HL model),[8],21.6 M^−1S^−1
same,kon2 (2:1 HL model),[8],2660 M^−1S^−1
same,KD1 (2:1 HL model),[9],557 µM
same,KD2 (2:1 HL model),[9],521 µM
same,Kd,[9],560000 nM
same,koff1 (2:1 HL model),[9],0.00323 S^−1
same,koff2 (2:1 HL model),[9],0.132 S^−1
same,kon1 (2:1 HL model),[9],5.8 M^−1S^−1
same,kon2 (2:1 HL model),[9],2.53 M^−1S^−1
same,maximum response,[10],0.27 nm
same,maximum response,[11],0.22 nm
